Assay results: publication PMC2685030, “SmCL3, a Gastrodermal Cysteine Protease of the Human Blood Fluke Schistosoma mansoni” (PLoS Neglected Tropical Diseases, 2009)

Test system: Cc1cc(=O)oc2cc(NC(=O)[C@H](CCCNC(=N)N)NC(=O)[C@H](Cc3ccccc3)NC(=O)OCc3ccccc3)ccc12
Test: purified protein
Settings: pH 6.0 citrate-phosphate, 25°C, 3 nM enzyme

## SmCL3 (Schistosoma mansoni)
  Km: 20.2 µM
